{"source": "patent EP4421085A1", "key": {"[1]": {"molecular_target": "recombinant human alpha synuclein A53T (human) (UniProt P37840)", "assay": "cell-based or functional assay"}, "[2]": {"molecular_target": "recombinant human alpha synuclein A30P (human) (UniProt P37840)", "assay": "cell-based or functional assay"}, "[3]": {"molecular_target": "recombinant human alpha synuclein E46K (human) (UniProt P37840)", "assay": "cell-based or functional assay"}, "[4]": {"molecular_target": "recombinant human wild type alpha synuclein (human) (UniProt P37840)", "assay": "cell-based or functional assay"}, "[5]": {"molecular_target": "biotinylated alpha synuclein (aSN) 1-140 (UniProt P37840)", "assay": "SPR (Biacore 8K), biotinylated aSN on SA chip, binder as analyte, 25 °C"}, "[6]": {"molecular_target": "biotinylated alpha synuclein (aSN) 1-140 (UniProt P37840)", "assay": "SPR (Biacore 8K), biotinylated aSN on SA chip, binder as analyte, 37 °C"}}, "data": [{"substance": "AS69 (designed binder)", "values": [{"measurement": "Ranking of the binders in figure 5 (ThT aggregation assay)", "setting": "[1]", "result": 6, "unit": "rank"}, {"measurement": "Ranking of the binders in figure 5 (ThT aggregation assay)", "setting": "[2]", "result": 5, "unit": "rank"}, {"measurement": "Ranking of the binders in figure 5 (ThT aggregation assay)", "setting": "[3]", "result": 4, "unit": "rank"}, {"measurement": "Ranking of the binders in figure 5 (ThT aggregation assay)", "setting": "[4]", "result": 3, "unit": "rank"}, {"measurement": "Kd", "setting": "[5]", "result": 72.2, "unit": "nM"}, {"measurement": "koff", "setting": "[5]", "result": 0.000114, "unit": "s⁻¹"}, {"measurement": "kon", "setting": "[5]", "result": 1580, "unit": "M⁻¹ s⁻¹"}, {"measurement": "Kd", "setting": "[6]", "result": 64.9, "unit": "nM"}, {"measurement": "koff", "setting": "[6]", "result": 0.000252, "unit": "s⁻¹"}, {"measurement": "kon", "setting": "[6]", "result": 3880, "unit": "M⁻¹ s⁻¹"}]}]}
